Assay results published in patent US20230008090A1 (WUXI BIOLOGICS IRELAND, published 2023).

B1: W3448-T3U1.E17R-1.uIgG4V9 (bispecific antibody)
heavy 1: QVQLVQSGAEVKKPGSSVKVSCKASGFAFTDYYIHWVRQAPGQGLEWMGWISPGNVNTKYNENFKGRVTITADKSTSTAYMELSSLRSEDTAVYYCARDGYSLYYFDYWGQGTLVTVSSASTKGPSVFPLAPCSRSTSESTAALGCLVKDYFPEPVTVSWNSGALTSGVHTFPAVLQSSGLYSLSSVVTVPSSSLGTKTYTCNVDHKPSNTKVDKRVESKYGPPCPPCPAPEAAGGPSVFLFPPKPKDTLMISRTPEVTCVVVDVSQEDPEVQFNWYVDGVEVHNAKTKPREEQFNSTYRVVSVLTVLHQDWLNGKEYKCKVSNKGLPSSIEKTISKAKGQPREPQVYTLPPCQEEMTKNQVSLWCLVKGFYPSDIAVEWESNGQPENNYKTTPPVLDSDGSFFLYSRLTVDKSRWQEGNVFSCSVMHEALHNHYTQKSLSLSLGK
light 1: not shown
heavy 2: QVQLQESGPGLVKPSETLSLTCTVSGGSVSSGDYYWTWIRQSPGKGLEWIGHIYYSGNTNYNPSLKSRLTISIDTSKTQFSLKLSSVTAADTAIYYCVRDRVTGAFDIWGQGTMVTVLEDLKNVFPPEVAVFEPSEAEISHTQKATLVCLATGFYPDHVELSWWVNGKEVHSGVCTDPQPLKEQPALQDSRYALSSRLRVSATFWQNPRNHFRCQVQFYGLSENDEWTQDRAKPVTQIVSAEAWGRYGPPCPPCPAPEAAGGPSVFLFPPKPKDTLMISRTPEVTCVVVDVSQEDPEVQFNWYVDGVEVHNAKTKPREEQFNSTYRVVSVLTVLHQDWLNGKEYKCKVSNKGLPSSIEKTISKAKGQPREPQVCTLPPSQEEMTKNQVSLSCAVKGFYPSDIAVEWESNGQPENNYKTTPPVLDSDGSFFLVSRLTVDKSRWQEGNVFSCSVMHEALHNHYTQKSLSLSLGK
light 2: DIQMTQSPSSLSASVGDRVTITCQASQDISNYLNWYQQKPGKAPKLLIYDASNLETGVPSRFSGSGSGTDFTFTISSLQPEDIATYFCQHFDHLPLAFGGGTKVEIKPDIQNPDPAVYQLRDSKSSDKSVCLFTDFDSQTQVSQSKDSDVYITDKCVLDMRSMDFKSNSAVAWSQKSDFACANAFQNSIIPEDTFFPSPESS
notes: Four-chain Ig-like bispecific: anti-CD3 Fab arm (T3) and anti-EGFR chimeric Fab arm with TCR constant domains (U1); IgG4 Fc with S228P, F234A, L235A and knob/hole mutations already contained in the full-length entries; also called lead BsAb; anti-CD3/anti-EGFR bispecific antibody
B2: W3311-2.306.4-z1-uIgG1K (antibody, V domains shown)
VH: QVQLVQSGAEVKKPGSSVKVSCKASGFAFTDYYIHWVRQAPGQGLEWMGWISPGNVNTKYNENFKGRVTITADKSTSTAYMELSSLRSEDTAVYYCARDGYSLYYFDYWGQGTLVTVSS
VL: DIVMTQSPDSLAVSLGERATINCKSSQSLLNSRTRKNYLAWYQQKPGQPPKLLIYWASTRQSGVPDRFSGSGSGTDFTLTISSLQAEDVAVYYCTQSHTLRTFGGGTKVEIK
notes: also called humanized anti-CD3 antibody; Humanized anti-CD3 mAb
B3: Panitumumab (antibody, human IgG2, V domains shown)
VH: QVQLQESGPGLVKPSETLSLTCTVSGGSVSSGDYYWTWIRQSPGKGLEWIGHIYYSGNTNYNPSLKSRLTISIDTSKTQFSLKLSSVTAADTAIYYCVRDRVTGAFDIWGQGTMVTV
VL: DIQMTQSPSSLSASVGDRVTITCQASQDISNYLNWYQQKPGKAPKLLIYDASNLETGVPSRFSGSGSGTDFTFTISSLQPEDIATYFCQHFDHLPLAFGGGTKVEIK
notes: the VH end in the benchmark IgG may differ; also called Anti-EGFR antibody; anti-EGFR mAb

Tests used:
[1] = molecular target: T1, human CD3 on Jurkat.2B8 (CD3+/EGFR-) cells (human, UniProt P07766 23-207); assay: flow cytometry on Jurkat.2B8 (CD3+/EGFR-) cells
T1 construct: whole, on cells; CD3 complex on cells; also called hCD3
T1 sequence (P07766 23-207): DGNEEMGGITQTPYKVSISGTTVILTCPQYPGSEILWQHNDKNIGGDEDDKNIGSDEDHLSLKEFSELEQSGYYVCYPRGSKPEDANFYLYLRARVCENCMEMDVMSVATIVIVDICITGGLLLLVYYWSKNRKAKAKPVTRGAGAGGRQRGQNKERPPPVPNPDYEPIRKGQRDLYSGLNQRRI
Experimental: Binding of EGFR×CD3 bispecific antibodies to human CD3 and EGFR expressing cells was determined by flow cytometry.
(§1) After washing twice with cold PBS supplemented with 1% bovine serum albumin (wash buffer), cell surface bound antibody was detected by incubating the cells with Fluorescence-labeled anti-human IgG antibody for 30 minutes at 4° C. Cells were washed twice in the same buffer and the mean fluorescence (MFI) of stained cells was measured using a FACS Canto II cytometer (BD Biosciences). Wells containing no antibody or secondary antibody only were used to establish background fluorescence. Four-parameter non-linear regression analysis was used to obtain EC₅₀ values for cell binding using GraphPad Prism software.

[2] = molecular target: T1, human CD3 on Jurkat.2B8 (CD3+/EGFR-) …; assay: FACS affinity on Jurkat.2B8 cells, quantitative beads
Experimental: Tested antibodies were serially diluted in wash buffer (1×PBS/1% BSA) and incubated with cells at 4° C. for 1 h. […] The cells were then washed once and re-suspended in 1×PBS/1% BSA, and analyzed by flow cytometry. Fluorescence intensity will be converted to bound molecules/cell based on the quantitative beads (Quantum™ MESF Kits, Bangs Laboratories, Inc.).

[3] = molecular target: T2, cynomolgus monkey CD3 on cynomolgus monkey PBMC / T cells (cynomolgus monkey, UniProt Q95LI5 22-198); assay: flow cytometry on cyno T cells (cynomolgus monkey PBMC)
T2 construct: whole, on cells; CD3 complex on primary cells; also called cyno CD3
T2 sequence (Q95LI5 22-198): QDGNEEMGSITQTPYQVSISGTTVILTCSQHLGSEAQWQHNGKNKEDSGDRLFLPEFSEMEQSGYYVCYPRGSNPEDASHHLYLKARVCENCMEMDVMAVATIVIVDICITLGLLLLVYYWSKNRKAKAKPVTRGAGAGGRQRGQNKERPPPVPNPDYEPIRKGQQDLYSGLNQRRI
Experimental: (§2) Binding of EGFR×CD3 bispecific antibodies to cynomolgus monkey CD3 and EGFR expressing cells was determined by flow cytometry.
as §1, with “Briefly, 1×10⁵ cynomolgus monkey PBMC(CD3+/EGFR−) cells or CHOK1-cynoPro1 (EGFR+/CD3−) cells were incubated for 60 minutes at 4° C. with serial dilutions of EGFR×CD3 bispecific or hIgG4 isotype control antibodies. After” for “After”

[4] = molecular target: T3, cynomolgus monkey EGFR on CHOK1-cynoPro1 (EGFR+/CD3-) cells (cynomolgus monkey, UniProt A0A2K5WK39 25-1210); assay: flow cytometry on CHOK1-cynoPro1 cells
T3 construct: whole, on cells; also called cyno EGFR
Experimental: as §2
as §1, with “Briefly, 1×10⁵ cynomolgus monkey PBMC(CD3+/EGFR−) cells or CHOK1-cynoPro1 (EGFR+/CD3−) cells were incubated for 60 minutes at 4° C. with serial dilutions of EGFR×CD3 bispecific or hIgG4 isotype control antibodies. After” for “After”

Binder	EC50 [1] [nM]	Kd [2] [nM]	EC50 [3] [nM]	EC50 [4] [nM]
B1	20.8	4.7	26.4	
B2	0.15		0.21	
B3				0.5
